B1: hPILRαR126A expressed on 293T cells (receptor)
chain: QPSGSTGSGPSYLYGVTQPKHLSASMGGSVEIPFSFYYPWELATAPDVRISWRRGHFHRQSFYSTRPPSIHKDYVNRLFLNWTEGQKSGFLRISNLQKQDQSVYFCAVELDTRSSGRQQWQSIEGTKLSITQAVTTTTQRPSSMTTTWRLSSTTTTTGLRVTQGKRRSDSWHISLETAVGVAVAVTVLGIMILGLICLLRWRRRKGQQRTKATTPAREPFQNTEEPYENIRNEGQNTDPKLNPKDDGIVYASLALSSSTSPRAPPSHRPLKSPQNETLYSVLKA
notes: also called human PILRαR126A; hPILRαR126A transfectants
B4: mPILRαR133A expressed on 293T cells (receptor)
chain: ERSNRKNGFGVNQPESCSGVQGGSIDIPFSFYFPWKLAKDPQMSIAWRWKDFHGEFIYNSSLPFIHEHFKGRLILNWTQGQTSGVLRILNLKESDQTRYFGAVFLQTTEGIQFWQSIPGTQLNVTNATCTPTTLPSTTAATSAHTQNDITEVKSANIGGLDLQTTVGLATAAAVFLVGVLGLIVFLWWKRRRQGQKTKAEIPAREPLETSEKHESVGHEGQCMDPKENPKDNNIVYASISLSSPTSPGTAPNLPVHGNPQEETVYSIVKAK
notes: also called mouse PILRα133A; mPILRαR133A transfectants

In experiment [1] the target is T1, hCOLEC12-his (human, UniProt Q5KU26 59-742, sialylated O-glycans and N-glycans).
T1 construct: Whole entry named; also called human COLEC12-his; hCOLEC12 (SPR); not shown: his tag
Briefly: flow cytometry, transfected 293T cells, PILRα-positive cells gated. Background: Flow cytometry measures light scatter and fluorescence of single cells or particles in a stream.

In experiment [2] the target is T2, hPILRα-Fc (human; mouse, UniProt Q9UKJ1 20-197).
T2 construct: also called human PILRα-Fc; WT hPILRα-Fc; not shown: Fc of mouse IgG2a (PILRα-mIgG2a, called PILRα-Fc)
Put plainly: flow cytometry, transfected 293T cells.

Experiment [3] deals with T3, mPILRα-Fc (mouse, UniProt Q2YFS3 32-198).
T3 construct: also called mouse PILRα-Fc; WT mPILRα-Fc; not shown: Fc of mouse IgG2a (PILRα-mIgG2a, called PILRα-Fc)
Put plainly: flow cytometry, transfected 293T cells.

Experiment [4] addresses B4. Briefly: flow cytometry, transfected 293T cells, PILRα-positive cells gated.
Experiment [5] addresses B1. The description is as above.
Experiment [6] has as its target T4, hPILRαR126A-Fc (human; mouse, UniProt Q9UKJ1 20-197).
T4 construct: Arg mutant of hPILRα-Fc; also called hPILRα R126-Fc; mutant hPILRα; not shown: Fc of mouse IgG2a (PILRα-mIgG2a, called PILRα-Fc)
Put plainly: SPR, hPILRα R126A-Fc immobilized, response difference. On the technique in general: Surface plasmon resonance follows binding to a sensor surface in real time, without labels.

We go through 7 molecules from US20150203575A1 (Genentech, published 2015).

T1 sequence (Q5KU26 59-742 S522P/G606S limits assumed): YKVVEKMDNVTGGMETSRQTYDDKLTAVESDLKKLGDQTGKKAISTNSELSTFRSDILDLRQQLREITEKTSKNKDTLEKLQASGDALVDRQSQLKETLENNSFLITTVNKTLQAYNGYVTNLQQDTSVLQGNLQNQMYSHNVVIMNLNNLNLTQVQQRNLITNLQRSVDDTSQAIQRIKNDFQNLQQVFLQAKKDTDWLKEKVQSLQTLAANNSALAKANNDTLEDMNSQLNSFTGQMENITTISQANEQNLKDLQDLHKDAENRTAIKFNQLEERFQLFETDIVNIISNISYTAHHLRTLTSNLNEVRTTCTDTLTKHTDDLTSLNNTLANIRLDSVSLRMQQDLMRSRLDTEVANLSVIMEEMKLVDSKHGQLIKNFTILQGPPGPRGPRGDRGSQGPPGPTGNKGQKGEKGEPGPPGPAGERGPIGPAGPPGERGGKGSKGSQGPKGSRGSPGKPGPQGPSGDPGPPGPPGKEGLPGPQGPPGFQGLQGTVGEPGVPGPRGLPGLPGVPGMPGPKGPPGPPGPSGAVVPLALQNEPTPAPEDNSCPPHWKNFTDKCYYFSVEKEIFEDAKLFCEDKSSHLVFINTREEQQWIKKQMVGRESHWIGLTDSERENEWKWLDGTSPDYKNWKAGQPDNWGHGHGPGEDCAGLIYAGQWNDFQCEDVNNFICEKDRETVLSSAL
T3 sequence (Q2YFS3 32-198): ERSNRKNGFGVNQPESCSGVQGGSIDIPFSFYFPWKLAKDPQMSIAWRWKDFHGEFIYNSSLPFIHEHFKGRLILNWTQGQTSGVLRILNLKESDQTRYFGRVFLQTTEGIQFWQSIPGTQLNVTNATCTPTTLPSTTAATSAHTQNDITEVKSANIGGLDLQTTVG

On to B1, for which the binding result in experiment [1] is on record as “no binding”.

B2: human CD99 expressed on 293T cells (ligand, UniProt P14209 23-185, looked up)
chain: DGGFDLSDALPDNENKKPTAIPKKPSAGDDFDLGDAVVDGENDDPRPPNPPKPMPNPNPNHPSSSGSFSDADLADGVSGGEGKGGSDGGGSHRKEGEEADAPGVIPGIVGAVVVAVAGAISSFIAYQKKKLCFKENAEQGEVDMESHRNANAEPAVQRTLLEK
notes: whole, on cells; also called hCD99; hCD99 transfectants
In the case of B2, the binding result in experiment [2] and in experiment [3] was “no binding” each time.

B3: mouse CD99 expressed on 293T cells (ligand, UniProt Q8VCN6 29-175, looked up)
chain: DDFNLGDALEDPNMKPTPKAPTPKKPSGGFDLEDALPGGGGGGAGEKPGNRPQPDPKPPRPHGDSGGISDSDLADAAGQGGGGAGRRGSGDEGGHGGAGGAEPEGTPQGLVPGVVAAVVAAVAGAVSSFVAYQRRRLCFREGGSAPV
modifications: sialylated O-glycans at Thr-45 and Thr-50 (cited as relevant for PILRα recognition)
notes: whole, on cells; also called mCD99; mCD99 transfectants
B3: the binding result in experiment [2] and in experiment [3] was “binds” throughout.

As to B4, the binding result in experiment [1] is listed as “no binding”.

B5: hNPDC1-Fc (Fc fusion)
chain: GHPDVAACPGSLDCALKRRARCPPGAHACGPCLQPFQEDQQGLCVPRMRRPPGGGRPQPRLEDEIDFLAQELARKESGQSTPPLPKDRQRLPEPATLGFSARGQGLELGLPSTPGTPTPTPHTSLGSPVSSDPVHMSPLEPRGGQGD
modifications: sialylated O-glycans
notes: Whole entry named; also called human NPDC1-Fc; hNPDC1 (SPR analyte); not shown: Fc
Regarding B5, the binding result in experiment [4] and in experiment [5] was “no binding” each time.

B6: hNPDC1-His (ligand, not shown: small tags and cut ends)
chain: GHPDVAACPGSLDCALKRRARCPPGAHACGPCLQPFQEDQQGLCVPRMRRPPGGGRPQPRLEDEIDFLAQELARKESGQSTPPLPKDRQRLPEPATLGFSARGQGLELGLPSTPGTPTPTPHTSLGSPVSSDPVHMSPLEPRGGQGD
modifications: Sialylated O-glycans, which the patent says are needed for PILRα binding, cannot be carried by the letters
notes: also called hNPDC1-His (WT); hNPDC1-His (mut) (labels name the immobilised hPILRα form)
Regarding B6, in experiment [6], the binding result is reported as “no binding (tested: 1 µM)”.

B7: mCD99-Fc (Fc fusion, mouse, UniProt Q8VCN6 29-137, looked up)
chain: DDFNLGDALEDPNMKPTPKAPTPKKPSGGFDLEDALPGGGGGGAGEKPGNRPQPDPKPPRPHGDSGGISDSDLADAAGQGGGGAGRRGSGDEGGHGGAGGAEPEGTPQG
modifications: three O-glycans NeuAc1-2Hex1HexNAc1
notes: also called mouse CD99-Fc; mCD99 (SPR analyte); not shown: Fc
With B7, the binding result in experiment [4] and in experiment [5] was “no binding” throughout.
